Results published in publication PMC10361663.

Experiments:
Kif5B = Kif5B (UniProt P33176); test: anti-GFP co-IP, Western blot; conditions: reference: eGFP-HURP wild type; sites S627
Importin β = Importin β (UniProt Q14974); test: anti-GFP co-IP, Western blot; conditions: reference: eGFP-HURP wild type; sites S627

HURP 1-846 (from UniProt Q15398) eGFP-HURP S627A
binding against the reference (Kif5B): lost | binding against the reference (Importin β): lost
